# Data as given in IntAct's records for PubMed 19691494.
# B1: G-protein coupled receptor 15 (Pan troglodytes (Chimpanzee)), Q9BG77 (parent)
# chain: MDPEETSVYLDYYYATSPNSDIRETHSHVPYTSVFLPVFYTAVFLTGVLGNLVLMGALHFKPGSRRLIDIFIINLAASDFIFLVTLPLWVDKEASLGLWRTGSFLCKGSSYMISVNMHCSVLLLTCMSVDRYLAIVWPVVSRKFRRTDCAYVVCASIWFISCLLGLPTLLSRELTLIDDKPYCAEKKATPIKLIWSLVALIFTFFVPLLSIVTCYCCIARKLCAHYQQSGKHNKKLKKSIKIIFIVVAAFLVSWLPFNTFKFLAIVSGLRQEHYLPSAILQLGMEVSGPLAFANSCVNPFIYYIFDSYIRRAIVHCLCPCLKNYDFGSSTETSDSHLTKALSTFIHAEDFARRRKRSVSL
# Variants of: B1
# Conditions: with 1433b_human YWHAB
row,effect of a mutation on the interaction,Variant
1,disrupting interaction,MDPEETSVYLDYYYATSPNSDIRETHSHVPYTSVFLPVFYTAVFLTGVLGNLVLMGALHFKPGSRRLIDIFIINLAASDFIFLVTLPLWVDKEASLGLWRTGSFLCKGSSYMISVNMHCSVLLLTCMSVDRYLAIVWPVVSRKFRRTDCAYVVCASIWFISCLLGLPTLLSRELTLIDDKPYCAEKKATPIKLIWSLVALIFTFFVPLLSIVTCYCCIARKLCAHYQQSGKHNKKLKKSIKIIFIVVAAFLVSWLPFNTFKFLAIVSGLRQEHYLPSAILQLGMEVSGPLAFANSCVNPFIYYIFDSYIRRAIVHCLCPCLKNYDFGSSTETSDSHLTKALSTFIHAEDFARRRKRSVAL [S359A]
